# System: cTSN (Tudor staphylococcal nuclease) (Caenorhabditis elegans)
# Assay: filter binding
# Details: 50 mM HEPES pH 7.0, 250 mM NaCl, 5 mM beta-mercaptoethanol, 2 mM EDTA, 30 min, room temperature, cTSN 0-2 uM
# [1] = inosine (A-to-I edited, positions in Figure 3)
Sequence,Kd,Kd [1]
ACUGGACAAAUACUCCGAGG / CCUCGGAGUAUUUGUCCAGU [dsRNA 20 bp],393 nM,–
ACUGGACAAAUACUCCGAGG [ssRNA 20 nt],767 nM,–
CAGUCACCCAUAAAGUAGAAAGCACUAC / GUAGUGUUUCCUACUUUAUGGAUGAGUG [pre-miR142Δloop-AtoI],–,68.3 nM
CAGUCACCCAUAAAGUAGAAAGCACUAC / GUAGUGUUUCCUACUUUAUGGAUGAGUG [pre-miR142Δloop],236 nM,–
CAGUCACCCAUAAAGUAGAAAGCACUACUGUGGGUAGUGUUUCCUACUUUAUGGAUGAGUG [pre-miR142-AtoI],–,74.6 nM
CAGUCACCCAUAAAGUAGAAAGCACUACUGUGGGUAGUGUUUCCUACUUUAUGGAUGAGUG [pre-miR142],136 nM,–

# From PMC5900569
